# According to PMC10835137 (2024):
# T1: IRBP 271-290 (P2) peptide on I-A^b (mouse)
# T1 peptide: QTWEGSGVLPCVG
# Biological target: T1, IRBP 271-290 (P2) peptide on I-A^b
# Assay: multimer staining
row,binding result,Binder
1,recognises,1 (TCR) alpha TRAV12D-3 TRAJ13 CDR3: CALRAGSGTYQRF beta TRBV3 TRBJ2-7 CDR3: CASSLAGTGVYEQYF
2,recognises,2 (TCR) alpha TRAV12-2 TRAJ47 CDR3: CALSVYANKMIF beta TRBV23 TRBJ2-4 CDR3: CSSSQTTNQNTLYF
3,recognises,3 (TCR) alpha TRAV16N TRAJ15 CDR3: CAMREGGGGRALIF beta TRBV15 TRBJ2-3 CDR3: CASSWGRGAETLYF
4,recognises,4 (TCR) alpha TRAV9-4 TRAJ31 CDR3: CAVSPHSNNRIFF beta TRBV2 TRBJ2-7 CDR3: CASSQEGLGGLGEQYF
5,recognises,5 (TCR) alpha TRAV9-2 TRAJ31 CDR3: CVLSAGNNRIFF beta TRBV20 TRBJ2-2 CDR3: CGASGPANTGQLYF
